# In PMC3976988 (Nature structural & molecular biology, 2013):
# B1: Rrp44 (enzyme, S. cerevisiae, UniProt Q08162 1-1001, looked up)
# chain: MSVPAIAPRRKRLADGLSVTQKVFVRSRNGGATKIVREHYLRSDIPCLSRSCTKCPQIVVPDAQNELPKFILSDSPLELSAPIGKHYVVLDTNVVLQAIDLLENPNCFFDVIVPQIVLDEVRNKSYPVYTRLRTLCRDSDDHKRFIVFHNEFSEHTFVERLPNETINDRNDRAIRKTCQWYSEHLKPYDINVVLVTNDRLNREAATKEVESNIITKSLVQYIELLPNADDIRDSIPQMDSFDKDLERDTFSDFTFPEYYSTARVMGGLKNGVLYQGNIQISEYNFLEGSVSLPRFSKPVLIVGQKNLNRAFNGDQVIVELLPQSEWKAPSSIVLDSEHFDVNDNPDIEAGDDDDNNESSSNTTVISDKQRRLLAKDAMIAQRSKKIQPTAKVVYIQRRSWRQYVGQLAPSSVDPQSSSTQNVFVILMDKCLPKVRIRTRRAAELLDKRIVISIDSWPTTHKYPLGHFVRDLGTIESAQAETEALLLEHDVEYRPFSKKVLECLPAEGHDWKAPTKLDDPEAVSKDPLLTKRKDLRDKLICSIDPPGCVDIDDALHAKKLPNGNWEVGVHIADVTHFVKPGTALDAEGAARGTSVYLVDKRIDMLPMLLGTDLCSLKPYVDRFAFSVIWELDDSANIVNVNFMKSVIRSREAFSYEQAQLRIDDKTQNDELTMGMRALLKLSVKLKQKRLEAGALNLASPEVKVHMDSETSDPNEVEIKKLLATNSLVEEFMLLANISVARKIYDAFPQTAMLRRHAAPPSTNFEILNEMLNTRKNMSISLESSKALADSLDRCVDPEDPYFNTLVRIMSTRCMMAAQYFYSGAYSYPDFRHYGLAVDIYTHFTSPIRRYCDVVAHRQLAGAIGYEPLSLTHRDKNKMDMICRNINRKHRNAQFAGRASIEYYVGQVMRNNESTETGYVIKVFNNGIVVLVPKFGVEGLIRLDNLTEDPNSAAFDEVEYKLTFVPTNSDKPRDVYVFDKVEVQVRSVMDPITSKRKAELLLK
# Biological target: exosome core (S. cerevisiae, UniProt P46948 1-246; Q05636 1-305; Q12277 1-265; P25359 1-394; P48240 1-250; P53256 …)
# Test: tandem affinity purification + ion-exchange chromatography
binder,measurement,value
B1,stoichiometry N,1 molar ratio
